Data: PMC9943658 (Nucleic Acids Research, 2023)

Molecular target: the molecule itself
Experiment: SEC

B1: His-T7-hnRNP C1 wild type (natural protein, UniProt P07910-2 1-293, looked up)
chain: MASNVTNKTDPRSMNSRVFIGNLNTLVVKKSDVEAIFSKYGKIVGCSVHKGFAFVQYVNERNARAAVAGEDGRMIAGQVLDINLAAEPKVNRGKAGVKRSAAEMYGSSFDLDYDFQRDYYDRMYSYPARVPPPPPIARAVVPSKRQRVSGNTSRRGKSGFNSKSGQRGSSKSGKLKGDDLQAIKKELTQIKQKVDSLLENLEKIEKEQSKQAVEMKNDKSEEEQSSSSVKKDETNVKMESEGGADDSAEEGDLLDDDDNEDRGDDQLELIKDDEKEAEEGEDDRDSANGEDDS
stoichiometry N: 4

B2: His-T7-hnRNP C1 ΔBASIC (natural protein)
chain: MASNVTNKTDPRSMNSRVFIGNLNTLVVKKSDVEAIFSKYGKIVGCSVHKGFAFVQYVNERNARAAVAGEDGRMIAGQVLDINLAAEPKVNRGKAGVKRSAAEMYGSSFDLDYDFQRDYYDRMYSYPARVPPPPPIARALQAIKKELTQIKQKVDSLLENLEKIEKEQSKQAVEMKNDKSEEEQSSSSVKKDETNVKMESEGGADDSAEEGDLLDDDDNEDRGDDQLELIKDDEKEAEEGEDDRDSANGEDDS
stoichiometry N: 4

B3: His-T7-hnRNP C1 ΔRRMΔBASIC (natural protein)
chain: MASNVTNKTDPRSMNPKVNRGKAGVKRSAAEMYGSSFDLDYDFQRDYYDRMYSYPARVPPPPPIARALQAIKKELTQIKQKVDSLLENLEKIEKEQSKQAVEMKNDKSEEEQSSSSVKKDETNVKMESEGGADDSAEEGDLLDDDDNEDRGDDQLELIKDDEKEAEEGEDDRDSANGEDDS
stoichiometry N: 4
